Experiments:
PACAP27 = PACAP27 (UniProt P18509); test: ELISA, biotinylated peptide on streptavidin plate
PACAP38 [1] = biological target: PACAP38 (UniProt P18509); test: ELISA, biotinylated peptide on streptavidin plate
VIP = VIP (UniProt P01282); test: ELISA, biotinylated peptide on streptavidin plate
PACAP38 [2] = biological target: PACAP38 (UniProt P18509); test: competition ELISA, biotinylated PACAP38 to coated PAC1-Fc
PACAP38 [3] = biological target: PACAP38 (UniProt P18509); test: competition ELISA, biotinylated PACAP38 to coated VPAC1-Fc
PACAP38 [4] = biological target: PACAP38 (UniProt P18509); test: competition ELISA, biotinylated PACAP38 to coated VPAC2-Fc
CGRP = test: cell-based or functional assay

Chain of PACAP38 (P18509 132-169 limits assumed): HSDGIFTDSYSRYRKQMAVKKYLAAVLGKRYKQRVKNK
Chain of PACAP27 (P18509 132-158 limits assumed): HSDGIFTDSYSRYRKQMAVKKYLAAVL
Chain of VIP (P01282 125-152 limits assumed): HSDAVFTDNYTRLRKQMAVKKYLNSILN

Row | Substance | EC50 (PACAP27) | EC50 (PACAP38 [1]) | EC50 (VIP) | IC50 (PACAP38 [2]) | IC50 (PACAP38 [3]) | IC50 (PACAP38 [4]) | IC50, inhibition of cAMP production in SK-N-MC cells (CGRP)
1 | ALD-1910 (antibody) | 0.15 nM | 0.07 nM | 1.02 nM | 4.89 nM | 0.65 nM | 1.58 nM | –
2 | Fremanezumab (antibody) | – | – | – | – | – | – | 40 nM
3 | LY-3451838 (antibody) | 0.11 nM | 0.06 nM | 9.58 nM | 6.46 nM | 1.34 nM | 1.42 nM | –
